Test: yeast display, Sf9 membrane polyspecificity reagent, FACS + sequencing; frameworks hold sequencing errors
Outline: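 A synthetic nanobody library was expressed on Saccharomyces cerevisiae BJ5465 by galactose induction for 36–48 hours. The library was stained for 1 hour at 4 °C with 10% biotinylated, detergent-solubilized Sf9 membrane reagent and enriched with streptavidin microbeads before FACS. Low and high (top ~1%) gates were set on anti-HA fluorescence for expression and streptavidin fluorescence for reagent binding, and each polyreactivity label reflects the gate of origin.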

Sequence | polyreactivity (PSR sort gate)
QVQLVESGGGLVQAGGSLRLSCAASGFTFYLNAMGWYRQAPGKERELVAAISYSDGSTYYADSVKGRFTISRDNAKNTVYFQMNSLKPEDSAVYYCDADTTDPGGAFQLKDYWGQGTQVTVSS | high polyreactivity
QVQLVESGGGLVQAGGSLRLSCAASGYIFPRYAMGWYRQAPGKERELVAAISYSGGSTYYADSVKGRFTISRDYAKNTVYLQMNSLKPEDTAVYYCNAYFLSQYQSAYRDDYWGQGTQVTVSS | high polyreactivity
QVQLVESGGGLVQAGGSLRLSCAASGRTFPDNAMGWYRQEPGKERELVAVINWGGTSTYYADSVKGRFTISRDNAKNTFYLQMNSLKPEDTAVYYCAARARYPRVGYNYWGQGTQVTVSS | high polyreactivity
QVQLVETGGGLDQAGGSLRLSCAASGRIFRKYVMGWYRQAPGKERELVAVISSGASTNYADSVKGRFTISRDNAKNTVYLQMNSLKPEDTAVYYCAKYGKYTWRQGGYWGQGTQVTVSS | high polyreactivity
QVQLVESGGGLVQAGGSLRLSCAASGRTFGTYDMGWYRQAPGKERELVAGINGSGGSTYYADSVKGRFTISRDNAKNTVYLQMNSLKPEDTAVYYCAADRRFSTYDYWGQGTQVTVSS | high polyreactivity
QVQLVESGGGLVQAGGSLRLSCAASGYTFYFYAMGWYRQAPGKERELVASITWRGGSTYYADSVKGRFTISRDNAKNTVYLQMNSLKPEDTAVYYCAKQVYYIYDYWGQGTQVTVSS | low polyreactivity
QVQLVESGGGLVQAGGSLRLRCAASGFIFQINAMGWYRQAPGKEREFVAAISRSVGSTSYADSVKGRFTISRDNAKNTVYLQMNSLKPEDTAVYYCNAAQRKRKGPYDYWGQGTQVTVSS | high polyreactivity
QVQLVESGGGLVQAGGSLRLSCAASGSIFSGNPMGWYRQAPGKERELVAAIDWSGDSTYYADSVKGRFTISRDNAKNTVYLQMNSLKPEDTAVYYCNTVSFSWGYSAYDYWGQGTQVTVSS | low polyreactivity
QVQLQESGGGLVQAGGSLCLSCAASGTIFFDGDMGWYRQAPCKEREFVAAINPGGSAYYADSVKGRLPLAAITHTVYLQMNSLKPEDTAVYYCAAKLFDVYGYYYWGQGTHVTVSS | low polyreactivity
QVQLVESGGGLVQAGGSLRLSCAASGFNFSYYAMGWYRHAPGKEWELVAAISRSGGSTYYADSVKGRFTISRDNAKNTVYLQMNSLKPEDTAVYYCAKRIKDRSGEAYVGLYYWGQGTQVTVSS | high polyreactivity
QVHLVESGGGLVQAGGSLRLSCAASGRTFPYNAMGWYRQAPGKERELVAAISWRGGSTYYADSVKGRFTISRDNAKNTVYLQMNSLKPEDTAVYYCNALYPVSYDHRGDYWGQGTQVTVSS | high polyreactivity
QDQLVESGGGLVQAGGSLRLSCAASGRILASYAMGWYRQAPGKERELVAAISLSGGSTYYADSVKGRFTISRDNAKNTVYLQMNSLKPEDTAVTYCAAKYPQKTPVNSYGNSFYYWGQGTQVTGSS | low polyreactivity
QVQLVESGGGLVQAGGSLRLSCAASGRTFWSYAMGWYRQAPGKERELVAAINSGGSTYYADSVKGRFTISRDNAKNTVYLQMNSLKPEDTAVYYFAADTWYGFDWGQGTQVTVSS | high polyreactivity
QVQLVESGGGLVQAGGSLRLSCAASGNIFSDYAMGWYRQAPGKERELVAAISSGGNTNYADSVKRRFSISRDNAKNTVYLEMNSLKPEDTAVYYCAAVYNTTYTLLPEYSDVKYYYWGQGTQVTVSS | low polyreactivity
QVQLVESGGGLVQAGGSLRLSCAASGRTFSWYAMGWYRQAPGKERELVAAITSVGSTNYADSVKGRFTISRDNAKNTVYLQMNSLKPEDTAVYYCAATIFVYSYRYYYWGQGTQVTVSS | low polyreactivity
QVQLVESGGGLVQAGGSLRLSCAASGRIFGYYVMGWYRPAPGKERELVAAISRSGGSTYYADSVKGRFTISRDNAKNTVYLQMNSLKPEDTAVYYCAKRVSTYGFSGYDYWGQGTQVTVSS | high polyreactivity
QVQLVESGGGLVQAGGSLRLSCAASGSTFQNNAMGWSRQAPGKERELVAGITGGGGNTNYADSVKGRFTISRDNTKNTVYLQMNSRTPEDTAVYYCAADDPWLGVDFGYWGQGTQVTLSS | low polyreactivity
QVQLVESGGGLVQAGGSLRLSWAASGSIFNTYVMGWYRQAPGKEWELVAAITYSAGGDTYYADSVKGRFTISRDNAKNTVYLQMNSLKPEDTAVYYCAAEYTYLDAYGSYDYWGQGTQVTVSS | low polyreactivity
QDQLVESGGGLVQEGGSLRLSCAASGRIFYFNARGWYRQAPGKERELVADISSGGRTNYADSVKGRFTFSRDNAKNSVYVQMNSEKPEDTAVYYCNSEPYTSSGGYRGYDFDYWGQGSQVTVSS | low polyreactivity
QVQLVESGGGLVQAGGSLRLSCAASGFTFKYKAMGWYRQAPGKERELVAVISSSGGRTYYADSVKGRFTISRDNAKNTVYLQMNSLKPEDTAVYYCAADTFVWADWSWHYYWRQGTQVTVSS | high polyreactivity
QVQLVESGGGLVQAGGSLRLSCAASGRIGYYVMGWYRQAPGKERELVAAISRSGDSTYYADSVKGRFTISRDNAKNTVYLQMNSLKPEDTAVYYCAAASGWRYFYKYDYWGQGTQVTVSS | high polyreactivity
QVQLVESGGGLVQAGGSLRLSCAASGRIFGWYAMGWYRQAPGKERELVAAISYSGGSTYADSVKGRFTISRDNAKYTVYLQMNSLKPEDTAVYYCAAYSSYYVHRFQHYDYWGQGTQVTVSS | high polyreactivity

Sequence | polyreactivity (PSR sort gate)
QVQLVESGGGLVQAGGSLRLICAASGFIFNSNAMGWYRQAPGKERELVAAISGRGGSTYYADSVKGRVTISRDNAKNTVYLQMNSLKPEDTAVYYCAAKLRPRYYVSGYDYWGQGTQVTVSS | high polyreactivity
QVQLVESGGGLVQAGGSLRLSCAASGSIFWYNAMGWYRQAPGKERELVASISYSGAITYYADSVKGRFTISRDNAKNTVYLQMNSLKPEDTAVYYCNAEHYLPGYDWSEYDSWGQGTQVTVSS | low polyreactivity
QVQLVESGGGLVQAGGSLRLSCAASGSIFRRFAMGWYRQAPGKEREFVAAISRSSDNTSYADSVKGRFTISRDNAKNTVYLQMNSLKPEDTAVYYCNADASWYGYWYYYWGQGTQVTVSS | low polyreactivity
QVQLVESGGGLVQAGGSLRLSCAASGGIFSYNVMGWYRQAPGKERELVAAITRGGSTYYADSVKGRFTISRDNAKNTVYLQMNSLKPEDTAVYYCAAVRNYLWTGYDYWGQGTQVTVSS | high polyreactivity
QVQLVESGGGLVQAGGSLRLSCAASGRIFAVNAMGWYRQAPGKERELVAAISWSGGITRYADSVKGRFTISRDNAKNTVYLQMNSLKPEDTAVYYCNASQWPSRFDYWGQGTQVTVSS | low polyreactivity
LLQLVESVGGLVQAGGTLRLSCAASRSTFHANTLGGYRKAPGKERELVAAISIRGANTYYADSVKGRLTISSDNAKNTVYLQMNSLKREDTAVYYCATRVRKYSLRLDYWGQGTQVTVSS | high polyreactivity
QVQLVESGGGLVQAGGSLRLSCAASGFIFIFYAMGWYRQAPGKERELVAGISWSSSSTYYADSVKGRFTISRDNAKNTVYLQMNSLKPEDTAVYYCAKDGRSVSGEYDYWGQGTQVTVSS | low polyreactivity
QVQLVESGRGLVQAGGSLRLSCAASGSIFGGYGMGWYRQAPGKERELVAAITSGSSTYYADSVKGRFTISRDNAKNTVYLQMNSLKPEDTAVYYCAARPYPHSAYEGDYWGRGTQVTVSS | low polyreactivity
QVQLVESGGGLVHAGGSLRLSCAASGFSFNTYAMGWYRQAPGKERELVADISSGGSTNYADSVKGRFTISRDNAKNTVFLQMNSLKPEDTAVYYCSADYYFLDWYDYWGQGTQVSVSS | low polyreactivity
QVQLVESGGGLVQAGGSLRLSCAASGRIFAVYAMGWYRQAPGKERELVAAINNGASTNYADSVKGRFTISRDNAKNTVYLQMNSLKPEDTAVYYCAAYGYWGQGTQVTVSS | high polyreactivity
QVQLVESGGGLVQAGGSLRLSCAASGSTFTRNTMGWYRQAPGKERELVAVISRRGGSTYYADSVKGRFTISRDNAKNTVYLQMNSLKPEDTAVYYCNTAAYRLQYEYWGQGTQVTVSS | high polyreactivity
QVQLVESGGGLVQAGGSLRLSCAASGYIYSVNAMGWYRQAPGKERELVAAIRGSGGSTFYADSVKGRFTISRDNAKNTVYLQMNSLKPEDTAVSYCAASFLGSFTDWVYSVYEYGSWGQGTQVTVSS | low polyreactivity
QVQLVESGGGLVQAGGSLRLSCAASGNIFYPYAMGWYRQAPGKERELVAAISWSDGSTYYADSVKGRFTISRDNAKNTVYLQMNILKPEDTAVYYCAAEAYISNYYGRDYWGQGTQVTVSS | high polyreactivity
QVQLVESGGGLVQAGGSLRLSCAASGRIFWYNAMGWYRQAPGKERELVAVITSGTSTYYADSVKGRFTISRDNAKNTVYLQMNSLKPEDTAVYYCAARYLSRYSERHYYYWGQGTQVTVSS | high polyreactivity
QDQLVESGGGLVQGGGSLRLSCAASGRIFSPYAMGWYRQAPGKEREVVAAITSASSTYYADSVKGRFTISRDNAKNTVYLQMNSLKPEDTAVNYCAASYWRYGSAFDYWGHGTQVTVSS | high polyreactivity
QVQLVESGGGLVQAGGSLRLSCAASGRTFYSNAMGWYRQAPGKERELVAAITSTDDSTYYADSVKGRFTISRDNAKNTVYLQMNSLKPEDNAVYYCNRDGLIAIRGLWWVEYDYWGQGTQVTVSS | low polyreactivity
QVQLVESGGGLVQAGGSLRISCAASGSIFLIFAMGWYRQSPGKERELVAAITQRGGSTYYADSVKGRFTISRDNAKNTVYFQMDSLKPEDTAVYYCNARRYVLRYNRFYYWGQGTQVTVSS | high polyreactivity
QVQLVESGGGLVQAGGSLRLSCAASGFIFSSNAMGWYRQAPGKERELVAGITASGVSTYYADSVKGRFTISRDNAKNTVYLQMNSLKPEDTAVYYCAALGLYYYFYSQYIDWDDYWGQGTQVTVSS | low polyreactivity
QVQLVESGGGLVQAGVSLRLSCAASGRTFSSYAMGWYRQAPRKERELVPGISWRGGRTYYADSVKGRFTISRDNGKNSVYLQMNSLKREDTAVYYCNKVYRTYYGDYRFSGIPRYDYVGQGTQVTVSS | high polyreactivity
QVQLVESGGGLVQAGGSLRLSCAASGFIFRGYAMGWYRQPPGKERELVATITNGGSTYYADSVKGRFTISRDNAKNTVYLQMNSLKPEDTAVYFCAAVTKFGEYAPGSKGYGYWGQGSQVTVSS | low polyreactivity
QVQLVESGGCLVQAGGSLRLSCAASGIIFTYYAMGWSRQAPGKESELVARISSSGGRTYYADSVKGRVTISRDNGKNTVYLQMNSLNPEDTAVYYCAAAIVSYGRNDYWGQGTQVTVSS | high polyreactivity
